Several values for one entry are separate records, joined by “and”; a condition that tells them apart may be missing. Equal entries are not always repeated. Where two headings read alike, the source gives them in different places.
Assays:
SARS-CoV-2 RBD-mFc [1] = molecular target: T1, SARS-CoV-2 RBD-mFc (SARS-CoV-2, UniProt P0DTC2 319-541); test: competition ELISA: RBD-mFc on coated ACE2-His
T1 construct: range 319-541

SARS-CoV-2 RBD-mFc [2] = molecular target: T1, SARS-CoV-2 RBD-mFc; test: flow cytometry competition: RBD-mFc on HEK293E/ACE2 cells
SARS-CoV-2 RBD-mFc [3] = molecular target: T1, SARS-CoV-2 RBD-mFc; test: Octet QKe BLI, 1:1 global fit
[4] = molecular target: T2, SARS-CoV 스파이크 [change] (#40150-V08B1, Sino Biological) (SARS-CoV, UniProt P59594 14-667); test: ELISA, coated S1-His
[5] = molecular target: SARS-CoV RBD-His (#40150-V08B2, Sino Biological) (SARS-CoV, UniProt P59594 306-527); test: ELISA, coated His-tagged antigen
SARS-CoV-2 스파이크 S1-mFc [6] = molecular target: T3, SARS-CoV-2 스파이크 S1-mFc (SARS-CoV-2, UniProt P0DTC2 16-685); test: competition ELISA: S1-mFc on coated ACE2-His
T3 construct: range 16-685

SARS-CoV-2 RBD-hFc [7] = molecular target: T4, SARS-CoV-2 RBD-hFc (SARS-CoV-2, UniProt P0DTC2 319-541); test: cell-based or functional assay
[8] = molecular target: T5, SARS-CoV-2 spike protein on live SARS-CoV-2 virus (SARS-CoV-2, UniProt P0DTC2 14-1273); test: cell-based or functional assay
SARS-CoV-2 스파이크 S1-mFc [9] = molecular target: T3, SARS-CoV-2 스파이크 S1-mFc; test: competition ELISA: S1-mFc on coated ACE2-His; remark: listed apart in the source
[10] = molecular target: T5, SARS-CoV-2 spike protein on live …; test: cell-based or functional assay; remark: listed apart in the source
SARS-CoV-2 RBD-hFc [11] = molecular target: T4, SARS-CoV-2 RBD-hFc; test: cell-based or functional assay; remark: listed apart in the source
SARS-CoV-2 RBD-mFc [12] = molecular target: T1, SARS-CoV-2 RBD-mFc; test: competition ELISA: RBD-mFc on coated ACE2-His; remark: listed apart in the source
[13] = molecular target: T2, SARS-CoV 스파이크 [change] (#40150-V08B1, …); test: ELISA, coated S1-His, as Example 5.2
SARS-CoV-2 RBD-mFc [14] = molecular target: T1, SARS-CoV-2 RBD-mFc; test: Octet QKe BLI, 1:1 global fit; remark: listed apart in the source
SARS-CoV-2 RBD-mFc [15] = molecular target: T1, SARS-CoV-2 RBD-mFc; test: flow cytometry competition: RBD-mFc on HEK293E/ACE2 cells; remark: listed apart in the source

Row | Binder | IC50 (SARS-CoV-2 RBD-mFc [1]) [nM] | IC50 (SARS-CoV-2 RBD-mFc [2]) [nM] | Kd (SARS-CoV-2 RBD-mFc [3]) [nM] | koff (SARS-CoV-2 RBD-mFc [3]) [s⁻¹] | kon (SARS-CoV-2 RBD-mFc [3]) [M⁻¹ s⁻¹] | binding result [4] | binding result [5] | IC50 (SARS-CoV-2 스파이크 S1-mFc [6]) [nM] | IC50, 세포내 유입(internalization) 억제, HEK293E/ACE2-GFP (SARS-CoV-2 RBD-hFc [7]) [nM] | IC50, live SARS-CoV-2 미세중화분석, Vero 세포 [8] [nM] | IC50 (SARS-CoV-2 스파이크 S1-mFc [9]) [nM] | IC50, live SARS-CoV-2 미세중화분석, Vero 세포, 72시간 [10] | IC50, 세포내 유입(internalization) 억제, HEK293E/ACE2-GFP (SARS-CoV-2 RBD-hFc [11]) [nM] | IC50 (SARS-CoV-2 RBD-mFc [12]) [nM] | binding result [13] | Kd (SARS-CoV-2 RBD-mFc [14]) [nM] | koff (SARS-CoV-2 RBD-mFc [14]) [s⁻¹] | kon (SARS-CoV-2 RBD-mFc [14]) [M⁻¹ s⁻¹] | IC50 (SARS-CoV-2 RBD-mFc [15]) [nM]
1 | SA3902 (antibody, V domains shown) VH: QVQLVQSGAEVRQPGASVKVSCKTSGYAFSYYHIHWVRQAPGQGLEWMGLINPGSGGTNYAQKFQGRVTLTRDTSTSTVYMDLTGLRSEDTAVYYCAGSEQPHYYANGAYRVWGQGTLVTVSS VL: DIQMTQSPSTLSASVGDRVTITCRASQSISSYLNWYQQKPGKAPKLLIYEVSTLESGVPSRFSGSRSGTEFTLTISSLQPDDFATYYCQQYDTFGGGTKVEIK | 12.4 | 1.75 | 0.328 | 8.12e-05 | 247000 | no binding (tested: 50 nM) | no binding | 3.85 | 14.9 | 37.3 |  |  |  |  |  |  |  |  | 
2 | SA4079 (antibody, V domains shown) VH: QMQLVESGGGVVQPGGSLRLSCAASGFTFDDHTMHWVRQAPGKGLEWVSLISWDGGSTYYADSVKGRFTISRDNSKNSLYLQMNSLRAEDTAVYYCTRDASRRPGDGGYDFDVWGQGTQVTVSS VL: QAVVTQEPSLTVSPGGTATLTCGSSTGTVTRGHWPYWFQQKPGQAPRTLIYDTDTKHSWTPARFSGSLLGGKAALTLSGAQPEDEADYYCLLSYSDSRVFGTGTKVTVL |  |  |  |  |  |  | no binding |  |  |  | 2.71 | 2.74 nM | 40 | 3.62 | no binding | 0.154 | 5.73e-05 | 373000 | 2.35
3 | SA3838 (antibody, V domains shown) VH: QVQLVESGAEVKKPGASVRVSCKISGYIFTELSIHWVRQAPGKGLEWMGGFDPEEGKTIYAQKFQGRVTMTEDTSTDTAYMELSSLRSEDTAVYYCAKIGHLGDFWYWGQGTLITVSS VL: QSALTQPASVSGSPGQSITISCTGTTSDIGSYDYVSWYQQHPGKAPKLIIYGVTRRPSGVSNRFSGSKSGNTASLTISRLLTEDEAEYYCATYTSSATYVFGTGTKVTVL | 2.2 | 3.38 |  |  |  | no binding (tested: 50 nM) | no binding | 1.2 | 36.1 | 9.4 | 2.25 | 13.5 nM | 42.8 | 1.62 |  |  |  |  | 2.99
4 | SA4055 (antibody, V domains shown) VH: EVQLVQSGGGLVQPGGSLRLSCAASVITVSSNYMSWVRQAPGKGLEWVSVIYPGGSTYYADSVKGRFTISRDKSKNTLYLQMNSLRAEDTAVYYCARDLDIVGGMDVWGQGTTVTVSS VL: QSALTQPASVSGSPGQSITISCTGTSSDVGDYNLVSWYQQHPGKAPKVMIYDVSHRPSGVSNRFSGSKSGNTASLTISGLQAEDEADYYCSSYTSSTTVVFGGGTKLTVL | 0.144 | 2.9 | 0.061 | 2.36e-05 | 387000 | no binding (tested: 50 nM) | no binding | 1.88 | 37.1 | 7 |  | 3.22 nM and 4.51 nM |  |  |  |  |  |  | 
5 | SA3779 (antibody, V domains shown) VH: QVQLVESGGGVVQPGRSLRLSCAASGFTFSSYAMHWVRQAPGKGLEWVAVISYDGSNKYYADSAKGRFTISRDNSKNTLYLQMNSLRAEDTAVYYCARRGHYYDSSGYLYWGHGTLITVSS VL: DIQMTQSPSSLSASVGDRVTITCRASQRIATYLHWYQQKPGRAPKLLIYAASSLQTGVPSRFSGSGSGTDFTLTINSLQPEDFATYYCQQSYAIPYTFGQGTKLEIK | 11.2 | 2.84 | 1.05 | 0.000223 | 213000 | no binding (tested: 50 nM) | no binding | 4.03 | 18.9 | 56.8 | 3.59 | 45.6 nM | 27.3 | 7.96 |  |  |  |  | 2.65
6 | SA3827 (antibody, V domains shown) VH: QVQLVESGGTLVQPGRSLRLSCAASGFTFSSYAMHWVRQAPGKGLEWVAVISYDGSNKYYADSVKGRFTISRDNSKNTLYLQMNSLRAEDTAVYYCARRGHYYDSSGFLYWGQGTLVTVSS VL: DIQMTQSPSSLSASVGDRVTITCRASQSISTYLSWYQQKPGKAPKLLIYAASNLQSGVPSRFSASGSGTDFTLTISSLQPEDFATYYCQQSYNTPRTFGQGTKVEIK | 0.914 | 2.74 | 0.452 | 0.000173 | 383000 | no binding (tested: 50 nM) | no binding | 0.61 | 12.9 | 8.92 | 0.9 | 7.94 nM | 18.3 | 0.321 |  |  |  |  | 2.71
7 | SA4040 (antibody, V domains shown) VH: EVQLVQSGAEVKKPGASVKVSCKASGYTFTGYYMHWARQAPGQGLEWMGWINPNSGGTNYAQKFQGRVTMTRDTSITTAYMELSRLTSDDTAVYYCARDQAFSMVRGVTDYWGQGTLVTVSS VL: QSALTQPPSASGSPGQSVIISCTGSSSDVGGYNYVAWYQQYPGAAPKLIISEVTKRPSGVPDRFSGSKSGNTASLTISGLQAEDEANYYCSSYAGDNTWIFGGGTKLTVL | 25.3 | 1.59 | 0.384 | 0.000181 | 471000 | no binding (tested: 50 nM) | no binding | 3.1 | 30.8 | 8.14 |  |  |  |  |  |  |  |  | 
